# Experimental data published in patent publication US20230355761A1 (CRISPR THERAPEUTICS, published 2023).
# B1: anti-CD70 CAR (CD70B scFv with 41BB), as expressed on the surface of gene-edited human T cells (CTX130; TRAC-/β2M-/CD70-/anti-CD70 CAR+ T cells) (other)
# chain: QVQLVQSGAEVKKPGASVKVSCKASGYTFTNYGMNWVRQAPGQGLKWMGWINTYTGEPTYADAFKGRVTMTRDTSISTAYMELSRLRSDDTAVYYCARDYGDYGMDYWGQGTTVTVSSGGGGSGGGGSGGGGSGDIVMTQSPDSLAVSLGERATINCRASKSVSTSGYSFMHWYQQKPGQPPKLLIYLASNLESGVPDRFSGSGSGTDFTLTISSLQAEDVAVYYCQHSREVPWTFGQGTKVEIKSAAAFVPVFLPAKPTTTPAPRPPTPAPTIASQPLSLRPEACRPAAGGAVHTRGLDFACDIYIWAPLAGTCGVLLLSLVITLYCNHRNRKRGRKKLLYIFKQPFMRPVQTTQEEDGCSCRFPEEEEGGCELRVKFSRSADAPAYQQGQNQLYNELNLGRREEYDVLDKRRGRDPEMGGKPRRKNPQEGLYNELQKDKMAEAYSEIGMKGERRRGKGHDGLYQGLSTATKDTYDALHMQALPPR
# Biological target: T1, CD70 on human cancer cell lines (A498, ACHN, SK-OV-3, Hs 766T, NCI-H1975, Calu-1, DU 145, SNU-1, MM.1S, HuT78) (human, UniProt P32970 1-193)
# T1 sequence (looked up): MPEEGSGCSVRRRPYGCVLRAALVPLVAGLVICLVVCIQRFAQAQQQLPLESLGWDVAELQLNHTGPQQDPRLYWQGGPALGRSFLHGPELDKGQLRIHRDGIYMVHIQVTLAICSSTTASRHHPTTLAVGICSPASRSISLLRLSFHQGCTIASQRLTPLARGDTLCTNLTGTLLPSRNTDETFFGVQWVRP
# Test: cell-based or functional assay
binder,measurement,value
B1,"cell kill of A498, ACHN, SK-OV-3 and Hs-766T cells by 3X KO CD70 CAR+ T cells, flow cytometry, 24 h, 1:1 effector:target cell ratio",> 50%
same,"cell kill of A498, ACHN, SK-OV-3 and Hs-766T cells by 3X KO CD70 CAR+ T cells, flow cytometry, 24 h, 4:1 effector:target cell ratio",> 60%
same,"cell kill of NCI-H1975, Calu-1 and DU 145 cells (medium to low CD70 expression) by 3X KO CD70 CAR+ T cells, flow cytometry, 24 h, 4:1 effector:target cell ratio",> 30%
same,"cell kill of SKOV-3, Hs-766T and NCI-H1975 cells by 3X KO CD70 CAR+ T cells, flow cytometry, 96 h, 1:1 effector:target cell ratio",> 80%
same,"cell lysis of CD70+ A498 cells by TRAC-/β2M-/CD70-/anti-CD70 CAR+ T cells, Cell titer-Glo, 24 h, T cell:A498 ratios 1:1 and 0.5:1",> 90%
same,"cell lysis of CD70+ A498 cells by TRAC-/β2M-/anti-CD70 CAR+ T cells (2X KO), Cell titer-Glo, 24 h, T cell:A498 ratios 1:1 and 0.5:1",< 90%
